Experimental data from patent US20200377595A1 (Chugai, published 2020).
Residue numbers refer to the chain shown, from its start. Where “and” joins values, the source holds several entries; their conditions need not be identical. Identical values can stand only once.

Key:
[1] = target: biotinylated CD3 epsilon epitope peptide; experiment: SPR, one-arm Ab
[2] = target: T1, biotin-labeled cynomolgus monkey CD137 fused to human IgG1 Fc fragment (cynomolgus monkey; human, UniProt Q07011 24-186, limits assumed, biotin-labeled); experiment: ELISA, IgG
T1 construct: also called cyno CD137-Fc; not shown: human IgG1 Fc fragment
T1 chain: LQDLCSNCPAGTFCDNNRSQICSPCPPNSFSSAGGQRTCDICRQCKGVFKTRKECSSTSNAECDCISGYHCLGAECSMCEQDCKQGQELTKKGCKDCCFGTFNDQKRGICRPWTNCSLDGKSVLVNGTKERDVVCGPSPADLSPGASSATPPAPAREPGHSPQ

B1: CE115HA340 one-arm antibody (antibody, human IgG1, kappa, L234A L235A, N297A)
VH: QVQLVESGGGLVQPGRSLRLSCAASGFTFSNAWMHWVRQAPGKGLEWVAQIKDKSNNYATYYAESVKGRFTISRDDSKNSIYLQMNSLKTEDTAVYYCRYVHYAAYYGVDAWGQGTTVTVSSASTKGPSVFPLAPSSKSTSGGTAALGCLVKDYFPEPVTVSWNSGALTSGVHTFPAVLQSSGLYSLSSVVTVPSSSLGTQTYICNVNHKPSNTKVDKKVEPKSCDKTHTCPPCPAPEAAGGPSVFLFPPKPKDTLMISRTPEVTCVVVDVSHEDPEVKFNWYVDGVEVHNAKTKPREEQYASTYRVVSVLTVLHQDWLNGKEYKCKVSNKALPAPIEKTISKAKGQPREPQVYTLPPSRCELTKNQVSLSCAVKGFYPSDIAVEWESNGQPENNYKTTPPVLDSDGSFFLVSKLTVDKSRWQQGNVFSCSVMHEALHNHYTQKSLSLSPDYKDDDDK
chain: EPKSSDKTHTCPPCPAPELLGGPSVFLFPPKPKDTLMISRTPEVTCVVVDVSHEDPEVKFNWYVDGVEVHNAKTKPREEQYNSTYRVVSVLTVLHQDWLNGKEYKCKVSNKALPAPIEKTISKAKGQPREPQVCTLPPSRDELTKNQVSLWCLVKGFYPSDIAVEWESNGQPENNYKTTPPVLDSDGSFFLYSKLTVDKSRWQQGNVFSCSVMHEALHNRYTQKSLSLSP
light: DIVMTQSPLSLPVTPGEPASISCRSSQSLVHSNRNTYLHWYQQKPGQAPRLLIYKVSNRFSGVPDRFSGSGSGTDFTLKISRVEAEDVGVYYCGQGTQVPYTFGQGTKLEIKRTVAAPSVFIFPPSDEQLKSGTASVVCLLNNFYPREAKVQWKVDNALQSGNSQESVTEQDSKDSTYSLSSTLTLSKADYEKHKVYACEVTHQGLSSPVTKSFNRGEC
notes: one-arm antibody
[1]
  Kd: 20 nM and 27 nM

B2: NNS6f64 (antibody)
chain 1: QVQLVESGGGLVQPGRSLRLSCAASGFTFSNAWMHWVRQAPGKGLEWVAQIKDKSNNYATYYAESVKGRFTISRDDSKNSIYLQMNSLKTEDTAVYYCRYVHYAALVSLTVYYGVDAWGQGTTVTVSSASTKGPSVFPLAPSSKSTSGGTAALGCLVKDYFPEPVTVSWNSGALTSGVHTFPAVLQSSGLYSLSSVVTVPSSSLGTQTYICNVNHKPSNTKVDKKVEPKSCDKTHTCPPCPAPEAAGGPSVFLFPPKPKDTLMISRTPEVTCVVVDVSHEDPEVKFNWYVDGVEVHNAKTKPREEQYASTYRVVSVLTVLHQDWLNGKEYKCKVSNKALPAPIEKTISKAKGQPREPQVYTLPPSRCELTKNQVSLSCAVKGFYPSDIAVEWESNGQPENNYKTTPPVLDSDGSFFLVSKLTVDKSRWQQGNVFSCSVMHEALHNHYTQKSLSLSPDYKDDDDK
chain 2: B1 chain
chain 3: B1 light
[1]
  Kd: 78 nM

B3: NNS6f62 (antibody)
chain 1: B2 chain 1 with L106N, V107G, S108G, L109T, T110R, V111H
chain 2: B1 chain
chain 3: B1 light
[1]
  Kd: 61 nM

B4: NNS6f68 (antibody)
chain 1: B2 chain 1 with L106V, V107E, S108W, L109G, T110R, V111W
chain 2: B1 chain
chain 3: B1 light
[1]
  Kd: 45 nM

B5: NHS6f52 (antibody)
chain 1: B2 chain 1 with L106Y, V107M, S108L, L109G, T110L, V111G
chain 2: B1 chain
chain 3: B1 light
[1]
  Kd: 52 nM

B6: NHS6f29 (antibody)
chain 1: B2 chain 1 with L106I, V107Y, S108Y, L109P, V111N
chain 2: B1 chain
chain 3: B1 light
[1]
  Kd: 90 nM

B7: NHS6f50 (antibody)
chain 1: B2 chain 1 with V107T, S108G, L109G, T110L, V111G
chain 2: B1 chain
chain 3: B1 light
[1]
  Kd: 71 nM

B8: NNS6f55 (antibody)
chain 1: B2 chain 1 with L106A, V107G, S108R, L109W, T110L, V111A
chain 2: B1 chain
chain 3: B1 light
[1]
  Kd: 31 nM

B9: NNS6f63 (antibody)
chain 1: B2 chain 1 with L106G, V107G, S108G, L109G, T110W
chain 2: B1 chain
chain 3: B1 light
[1]
  Kd: 69 nM

B10: NNS6f72 (antibody)
chain 1: B2 chain 1 with L106E, V107G, S108I, L109W, T110W, V111G
chain 2: B1 chain
chain 3: B1 light
[1]
  Kd: 150 nM

B11: NNS6f67 (antibody)
chain 1: B2 chain 1 with L106G, V107L, S108L, L109R, T110A, V111A
chain 2: B1 chain
chain 3: B1 light
[1]
  Kd: 36 nM

B12: NNS6f27 (antibody)
chain 1: B2 chain 1 with L106V, V107W, S108G, L109S, T110V, V111W
chain 2: B1 chain
chain 3: B1 light
[1]
  Kd: 38 nM

B13: NNS6f73 (antibody)
chain 1: B2 chain 1 with L106W, S108V, L109G, T110V, V111R
chain 2: B1 chain
chain 3: B1 light
[1]
  Kd: 26 nM

B14: NNS6f47 (antibody)
chain 1: B2 chain 1 with L106H, V107F, S108M, L109W, T110W, V111G
chain 2: B1 chain
chain 3: B1 light
[1]
  Kd: 31 nM

B15: NHS6f17 (antibody)
chain 1: B2 chain 1 with L106W, V107G, S108E, L109G, T110V
chain 2: B1 chain
chain 3: B1 light
[1]
  Kd: 74 nM

B16: NNS6f58 (antibody)
chain 1: B2 chain 1 with L106S, V107W, S108Q, L109V, T110S, V111R
chain 2: B1 chain
chain 3: B1 light
[1]
  Kd: 44 nM

B17: NNS6f51 (antibody)
chain 1: B2 chain 1 with L106G, V107F, S108L, L109V, T110L, V111W
chain 2: B1 chain
chain 3: B1 light
[1]
  Kd: 31 nM

B18: NNS6f56 (antibody)
chain 1: B2 chain 1 with L106R, V107E, S108A, L109T, T110R, V111W
chain 2: B1 chain
chain 3: B1 light
[1]
  Kd: 21 nM

B19: NNS6f54 (antibody)
chain 1: B2 chain 1 with L106F, V107E, S108W, L109V, T110G, V111W
chain 2: B1 chain
chain 3: B1 light
[1]
  Kd: 29 nM

B20: NNS6f59 (antibody)
chain 1: B2 chain 1 with V107L, S108V, L109Q, T110E, V111G
chain 2: B1 chain
chain 3: B1 light
[1]
  Kd: 200 nM

B21: NNS6f71 (antibody)
chain 1: B2 chain 1 with L106G, V107W, S108V, T110G, V111S
chain 2: B1 chain
chain 3: B1 light
[1]
  Kd: 51 nM

B22: dBBDu197 (antibody, IgG1, V domains shown)
VH: QVQLVESGGGLVQPGRSLRLSCAASGFTFSNAWMHWVRQAPGKGLEWVAQIKDRSNAYAAYYAPSVKGRFTISRDDSKNSIYLQMNSLKTEDTAVYYCHYVHYASASTVLPAFGVDAWGQGTTVTVSS
VL: DIVMTQSPLSLPVTPGEPASISCRSSQSLVHSNRNTYLHWYQQKPGQAPRLLIYKVSNRFSGVPDRFSGSGSGTDFTLKISRVEAEDVGVYYCGQGTQVPYTFGQGTKLEIK
notes: IgG1
[2]
  binding result: binds

B23: dBBDu173 (antibody, IgG1, V domains shown)
VH: B22 VH with R54K, S55G, A57L, S107G, T108G, V109G, P111S, F113Y
VL: B22 VL
notes: IgG1
[2]
  binding result: binds

B24: dBBDu196 (antibody, IgG1, V domains shown)
VH: B22 VH with S55G, A59N, P64E
VL: B22 VL
notes: IgG1
[2]
  binding result: binds

B25: dBBDu202 (antibody, IgG1, V domains shown)
VH: B22 VH with R54K, S55G, A104S, S105A
VL: B22 VL
notes: IgG1
[2]
  binding result: binds

B26: dBBDu193 (antibody, IgG1, V domains shown)
VH: B22 VH with A57Q, A60T, A104S, S105A, V109L, A112S
VL: B22 VL
notes: IgG1
[2]
  binding result: binds

B27: dBBDu167 (antibody, IgG1, V domains shown)
VH: B22 VH with R54K, S55G, A57L, S107G, T108G, V109G, A112G
VL: B22 VL
notes: IgG1
[2]
  binding result: binds

B28: dBBDu204 (antibody, IgG1, V domains shown)
VH: B22 VH with A57N, A60T, P64E
VL: B22 VL
notes: IgG1
[2]
  binding result: binds

B29: dBBDu189 (antibody, IgG1, V domains shown)
VH: B22 VH with V48I, A57Q, A60T, S105Q, T108S, V109L, A112S
VL: B22 VL
notes: IgG1
[2]
  binding result: binds

B30: dBBDu186 (antibody, IgG1, V domains shown)
VH: B22 VH with A57Q, A60T, S105Q
VL: B22 VL
notes: IgG1
[2]
  binding result: binds

B31: dBBDu199 (antibody, IgG1, V domains shown)
VH: B22 VH with R54K, S55Q, N56S, A57G, A59N, A60T
VL: B22 VL
notes: IgG1
[2]
  binding result: binds

B32: dBBDu205 (antibody, IgG1, V domains shown)
VH: B22 VH with N56Q, A57L
VL: B22 VL
notes: IgG1
[2]
  binding result: binds
